± gives the standard deviation of the averaged measurements.
How the values were obtained:
Saccharomyces cerevisiae [1] = test: protein stability index of tFT-peptide fusion (C-terminal peptide) (PSI (0-1 scale)); higher = more stable (slower turnover); settings: genetic background: wild type; temperature: 30 C
Saccharomyces cerevisiae [2] = test: as above
Description: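 MPS profiling in S. cerevisiae of the tFT-X12 degron library: putative degron peptides plus stable controls, 12 aa, fused to the C-terminus of a sfGFP-mCherry timer. Cells are FACS-sorted into 8 mCherry/sfGFP bins and deep-sequenced. PSI runs from 0 (unstable) to 1 (stable). Backgrounds are wild type, das1Δ and doa10Δ at 30 °C, and wild type, das1Δ, cdc34-1 and cdc53-1 at 37 °C; 2-3 technical replicates each.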

[3] = genetic background: cdc34-1, temperature: 37 C
[4] = genetic background: cdc53-1, temperature: 37 C
[5] = genetic background: das1 deletion, temperature: 30 C
[6] = genetic background: das1 deletion, temperature: 37 C
[7] = genetic background: doa10 deletion, temperature: 30 C
[8] = genetic background: wild type, temperature: 30 C
[9] = genetic background: wild type, temperature: 37 C
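Note: PSI is a weighted mean of sequencing reads over stability bins, variants kept only with over 10 reads, mCherry proximal and sfGFP distal, peptide attached via GGGS linker.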

Row | Sequence | protein stability index (Saccharomyces cerevisiae [1]) | protein stability index (Saccharomyces cerevisiae [2]; [3]) | protein stability index (Saccharomyces cerevisiae [2]; [4]) | protein stability index (Saccharomyces cerevisiae [2]; [5]) | protein stability index (Saccharomyces cerevisiae [2]; [6]) | protein stability index (Saccharomyces cerevisiae [2]; [7]) | protein stability index (Saccharomyces cerevisiae [2]; [8]) | protein stability index (Saccharomyces cerevisiae [2]; [9])
1 | FCMLCVVFLGSL | 0.505 ± 0.034 | 0.43 ± 0.067 | 0.532 ± 0.0092 | 0.39 ± 0.029 | 0.6206 ± 0.0047 | 0.358 ± 0.01 | 0.397 ± 0.015 | 0.596 ± 0.026
2 | FCVCLAVTCCGG | 0.354 ± 0.01 | 0.279 ± 0.023 | 0.42 ± 0.013 | 0.277 ± 0.023 | 0.477 ± 0.0066 | 0.215 ± 0.0029 | 0.26 ± 0.024 | 0.42 ± 0.011
3 | FDWLFFFVNFVV | 0.2459 ± 0.00064 | 0.407 ± 0.063 | 0.511 ± 0.033 | 0.475 ± 0.018 | 0.546 ± 0.029 | 0.174 ± 0.0022 | 0.163 ± 0.019 | 0.24 ± 0.0068
4 | FFAFLRFFIFYW | 0.448 ± 0.063 | 0.319 ± 0.058 | 0.266 ± 0.087 | 0.349 ± 0.032 | 0.435 ± 0.0075 | 0.419 ± 0.0083 | 0.328 ± 0.0074 | 0.451 ± 0.026
5 | FFALFLPLACFC | 0.429 ± 0.013 | 0.4689 ± 0.0012 | 0.4432 ± 0.004 | 0.38 ± 0.031 | 0.4899 ± 0.0037 | 0.353 ± 0.023 | 0.386 ± 0.014 | 0.455 ± 0.0076
6 | FFCCFVFVLGFC | 0.419 ± 0.021 | 0.328 ± 0.011 | 0.443 ± 0.01 | 0.312 ± 0.028 | 0.4401 ± 0.0036 | 0.283 ± 0.014 | 0.291 ± 0.019 | 0.393 ± 0.0054
7 | FFCSILLGIILL | 0.399 ± 0.04 | 0.385 ± 0.014 | 0.401 ± 0.0091 | 0.364 ± 0.029 | 0.507 ± 0.016 | 0.47 ± 0.0098 | 0.37 ± 0.033 | 0.451 ± 0.011
8 | FFFCFFIFCFSL | 0.3698 ± 0.0032 | 0.327 ± 0.005 | 0.409 ± 0.025 | 0.333 ± 0.026 | 0.463 ± 0.013 | 0.335 ± 0.046 | 0.324 ± 0.015 | 0.396 ± 0.036
9 | FFFFSFFLATFS | 0.305 ± 0.026 | 0.227 ± 0.018 | 0.36 ± 0.016 | 0.288 ± 0.055 | 0.418 ± 0.013 | 0.264 ± 0.029 | 0.26 ± 0.036 | 0.39074 ± 0.00019
10 | FFGVFIFPVSCR | 0.291 ± 0.022 | 0.203 ± 0.013 | 0.226 ± 0.019 | 0.204 ± 0.028 | 0.292 ± 0.01 | 0.174 ± 0.0071 | 0.209 ± 0.032 | 0.291 ± 0.028
11 | FFGVLFRVSLFF | 0.266 ± 0.035 | 0.12 ± 0.035 | 0.22 ± 0.011 | 0.191 ± 0.022 | 0.3075 ± 0.0027 | 0.175 ± 0.0079 | 0.173 ± 0.017 | 0.262 ± 0.0057
12 | FFLLLLRPPLVM | 0.374 ± 0.051 | 0.34 ± 0.035 | 0.363 ± 0.0046 | 0.275 ± 0.035 | 0.4464 ± 0.0041 | 0.276 ± 0.0029 | 0.267 ± 0.03 | 0.41225 ± 0.0001
13 | FFRFCFLLLASS | 0.25 ± 0.061 | 0.303 ± 0.011 | 0.335 ± 0.01 | 0.221 ± 0.024 | 0.4 ± 0.01 | 0.197 ± 0.019 | 0.188 ± 0.013 | 0.355 ± 0.011
14 | FFSRSLGAGVAA | 0.644 ± 0.21 | 0.71 ± 0.037 | 0.747 ± 0.044 | 0.602 ± 0.028 | 0.715 ± 0.041 | 0.5962 ± 0.0036 | 0.604 ± 0.013 | 0.724 ± 0.033
15 | FFVEFFLLCFCS | 0.476 ± 0.0053 | 0.497 ± 0.023 | 0.498 ± 0.024 | 0.463 ± 0.057 | 0.503 ± 0.036 | 0.476 ± 0.0075 | 0.472 ± 0.019 | 0.515 ± 0.033
16 | FFVSFFFFLWLV | 0.228 ± 0.0027 | 0.204 ± 0.011 | 0.181 ± 0.024 | 0.204 ± 0.011 | 0.261 ± 0.014 | 0.278 ± 0.038 | 0.161 ± 0.018 | 0.189 ± 0.015
17 | FGFFDIKLPVVA | 0.486 ± 0.018 | 0.515 ± 0.037 | 0.51 ± 0.022 | 0.38 ± 0.024 | 0.5539 ± 0.0013 | 0.345 ± 0.012 | 0.373 ± 0.041 | 0.518 ± 0.017
18 | FGVECDLCLFCC | 0.376 ± 0.018 | 0.617 ± 0.07 | 0.6837 ± 0.0031 | 0.572 ± 0.0088 | 0.692 ± 0.03 | 0.2392 ± 0.0022 | 0.257 ± 0.014 | 0.46 ± 0.015
19 | FGVVRVSIPVGV | 0.368 ± 0.012 | 0.211 ± 0.024 | 0.203 ± 0.02 | 0.227 ± 0.038 | 0.3584 ± 0.0023 | 0.184 ± 0.005 | 0.233 ± 0.024 | 0.316 ± 0.007
